Tests used:
β-lactamase-SBP fusion = assay: SPR; BIAcoreX; purified β-lactamase-SBP amine-coupled to a CM5 chip, streptavidin variant as analyte; blank flow cell as reference
wild-type streptavidin [1] = biological target: wild-type streptavidin (UniProt P22629); assay: affinity column chromatography; streptavidin variant coupled to Affi-gel 15; culture supernatant with β-lactamase-SBP loaded at 142-150% of the theoretical column binding capacity (overloaded); leakage during washing; pure wash fractions pooled with the elution fractions
Chain of wild-type streptavidin (UniProt P22629) (P22629 25-183): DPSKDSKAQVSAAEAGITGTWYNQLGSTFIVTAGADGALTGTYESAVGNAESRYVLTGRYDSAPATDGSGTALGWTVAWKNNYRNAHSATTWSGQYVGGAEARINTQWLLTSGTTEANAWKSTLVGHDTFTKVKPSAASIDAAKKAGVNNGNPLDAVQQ

[2] = biological target: SAVSBPM18 engineered streptavidin (S27A, G48T) (UniProt P22629); assay: as above
Chain of SAVSBPM18 engineered streptavidin (S27A, G48T) (P22629 25-183 S51A/G72T): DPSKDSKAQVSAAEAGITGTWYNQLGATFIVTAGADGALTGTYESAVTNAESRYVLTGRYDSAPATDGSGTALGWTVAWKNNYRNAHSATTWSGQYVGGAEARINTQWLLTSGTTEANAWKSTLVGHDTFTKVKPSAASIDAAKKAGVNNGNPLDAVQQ

wild-type streptavidin [3] = biological target: wild-type streptavidin (UniProt P22629); assay: affinity column chromatography; streptavidin variant coupled to Affi-gel 15; culture supernatant with β-lactamase-SBP loaded at 20% of the theoretical column binding capacity (non-overloaded); PBS wash, elution with 5 mM d-biotin
[4] = biological target: SAVSBPM18 engineered streptavidin (S27A, G48T) (UniProt P22629); assay: as above
[5] = biological target: SAVSBPM18 engineered streptavidin (S27A, G48T) (UniProt P22629); assay: affinity column chromatography; streptavidin variant coupled to Affi-gel 15; culture supernatant with β-lactamase-SBP loaded at 142-150% of the theoretical column binding capacity (overloaded); leakage during washing; pure wash fractions pooled with the elution fractions; remark: listed apart in the source

Chain of wild-type streptavidin (from UniProt P22629 25-183) (natural protein) (P22629 25-183): as the sequence (P22629 25-183) above

Row | Substance | Kd (β-lactamase-SBP fusion) | koff (β-lactamase-SBP fusion) | kon (β-lactamase-SBP fusion) | percent recovery (wild-type streptavidin [1]) | percent recovery [2] | percent recovery (wild-type streptavidin [3]) | percent recovery [4] | percent recovery [5]
1 | SAVSBPM18 engineered streptavidin (S27A, G48T) (from UniProt P22629 25-183) (designed binder) | 0.0157 µM | 0.000711 s⁻¹ | 45300 M⁻¹ s⁻¹ | – | – | – | – | –
2 | wild-type streptavidin (from UniProt P22629 25-183) (natural protein) | 0.00859 µM | 0.000816 s⁻¹ | 95000 M⁻¹ s⁻¹ | – | – | – | – | –
3 | β-lactamase-SBP fusion | – | – | – | 51% | 58% | 90% | 91% | 51%

Source: article PMC3712923
